Measurements taken from patent US20110150895A1 (SAMSUNG ELECTRONICS, published 2011).
One block for each binder: values may come before it.

What was measured:
[1] = molecular target: T1, recombinant hAng-2 (a recombinant human angiopoietin-2 protein with an attached His tag; R&D Systems) (human, UniProt O15123 19-496); assay: competitive ELISA: inhibition of 1 nM hAng-2 binding to coated hTie2-Fc
T1 construct: Bought reagent; not shown: His tag
T1 sequence (looked up): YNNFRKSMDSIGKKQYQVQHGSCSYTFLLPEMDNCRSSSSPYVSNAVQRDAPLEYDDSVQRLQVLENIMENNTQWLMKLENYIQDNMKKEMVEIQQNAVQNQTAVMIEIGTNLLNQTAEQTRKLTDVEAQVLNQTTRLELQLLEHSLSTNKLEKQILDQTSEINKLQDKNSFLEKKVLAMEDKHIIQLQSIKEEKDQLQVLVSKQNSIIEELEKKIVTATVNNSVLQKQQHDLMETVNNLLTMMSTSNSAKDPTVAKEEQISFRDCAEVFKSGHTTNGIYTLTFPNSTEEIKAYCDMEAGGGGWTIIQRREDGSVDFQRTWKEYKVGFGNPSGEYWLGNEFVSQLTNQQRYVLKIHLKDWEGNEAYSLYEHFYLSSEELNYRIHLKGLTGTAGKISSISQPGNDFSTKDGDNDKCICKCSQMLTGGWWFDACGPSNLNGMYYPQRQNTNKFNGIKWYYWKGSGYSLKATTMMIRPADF
Method: A 96-well MaxiSorp™ flat-bottom plate (Nunc) was coated with recombinant human Tie2-Fc (hTie2-Fc) (R&D Systems, Inc.) dissolved in DMEM culture containing 50 μg/ml bovine serum albumin (BSA). The hTie-2Fc is a chimeric protein including the water-soluble extracellular region of human Tie-2 and the Fc fragment of human IgG₁. The concentration of hTie2-Fc immobilized was equivalent to 75% of its maximum binding concentration with 1 nM of recombinant hAng-2 (a recombinant human angiopoietin-2 protein with an attached His tag; R&D Systems). The plate was washed with Phosphate Buffered Saline (PBS) containing 0.1% TWEEN-20 five times and blocked with PBS containing 5% BSA at room temperature for two hours. To perform an ELISA experiment for determining whether binding between angiopoietin-2 and Tie-2 was neutralized, each of the monoclonal antibodies SAIT-Ang-2-5 and SAIT-Ang-2-6 prepared according to Example 1 were serially diluted from 100 nM by one-fourth each time with PBS containing 1% BSA and 1 nM hAng-2 and adjusted to a concentration of 6.1 pM. […] The OD₄₅₀ value was read on a plate reader (Molecular Devices). […] Based on the results, each of the monoclonal antibodies SAIT-Ang-2-5 and SAIT-Ang-2-6 of Example 1 was determined to be capable of neutralizing binding between angiopoietin-2 and Tie-2 (refer to Table 1).

[2] = molecular target: T1, recombinant hAng-2 (a recombinant human …); assay: SPR (BIAcore T100), hAng-2 amine-coupled on CM5 chip, antibody as analyte
Method: The affinity of each of the monoclonal antibodies SAIT-Ang-2-5 and SAIT-Ang-2-6 of Example 1 to angiopoietin-2 was measured using a surface plasmon resonance (SPR) device (BIAcore T100, GE Healthcare). 20 μg/ml recombinant hAng-2 (R&D Systems) was immobilized on a CM5 chip (GE Healthcare) using a pH 4.5 acetate solution and an amine coupling kit (GE Healthcare). Each of the monoclonal antibodies SAIT-Ang-2-5 and SAIT-Ang-2-6 of Example 1 was diluted to eight different concentrations down to 0.78125 nM by serially diluting to ½ each time starting from 100 nM. Then, the antigen/antibody affinity was measured by binding each antibody with the antigen immobilized on the CM5 chip and dissociating the antigen from the antibody using a pH2.2 glycine-HCl solution. […] From the results, the affinity of each monoclonal antibody SAIT-Ang-2-5 and SAIT-Ang-2-6 of Example 1 to angiopoietin-2 was determined.

- IC50 [1]: 0.764 nM
- Kd [2]: 0.902 nM
- koff [2]: 0.00178 s⁻¹
- kon [2]: 1.97e+06 M⁻¹ s⁻¹
B1: Monoclonal antibody SAIT-Ang-2-5 (antibody, V domains shown)
VH: DVQLVESGGGLAQPGGSRKLSCAASGFTFSNFGMHWVRQAPEKGLDWVAYISSGSDTIYYADTVKGRFTISRDNPKNTLFLQMTSLRSEDTAMYYCARESTMITMGYVLDYWGQGTSVTVSS
VL: DIQMTQSPASQSASLGESVTITCLASQTIGTWLAWYQQKPGKSPQLLIYAATSLADGVPSRFSGSGSGTKFSLKISSLQAEDFVSYYCQQLYSIPLTIGAGTKLELK
notes: also called antibody of hybridoma KCLRF-BP-00221

- IC50 [1]: 1.86 nM
- Kd [2]: 1.27 nM
- koff [2]: 0.00207 s⁻¹
- kon [2]: 1.64e+06 M⁻¹ s⁻¹
B2: Monoclonal antibody SAIT-Ang-2-6 (antibody, V domains shown)
VH: QVQLQQPGSELVRPGTSVKLSCKASGYTFTNYLMHWVKQRPGQGLEWIGNIYPGSGATNYDEKFKSKATLTVDISSSTAYMQLISLTSEDSAVYYCTRDDYDGSWFAYWGQGTLVTVSA
VL: DIVMTQSPSSLSVSAGEKVTMTCKSSQSLLISGNQKNFLAWYQQKPGQPPKLLIYGASTRDSGVPDRFTGSGSGTDFTLTISSVQAEDLAVYYCQNDHSYPLTFGTGTKLELK
notes: also called antibody of hybridoma KCLRF-BP-00222
